Test results taken from publication PMC10284417.

Target: EtpA^1-606 (Enterotoxigenic Escherichia coli (ETEC))
Assay: dynamic light scattering; Zetasizer, 4°C, 1 mg/mL protein in 20 mM Tris pH 7.5, 150 mM NaCl

EtpA^1-606 (domain or fragment)
stoichiometry N: 2
